How the values were obtained:
D5 IgG = assay: AlphaScreen competition: peptide titrated against the binding of D5-IgG to biotinylated-IQN17
(Biotin-CCIZN23)3 [1] = assay: BIAcore SPR; (biotin-CCIZN23)3 immobilized on SA chip, D5-scFv in solution
(Biotin-CCIZN23)3 [2] = assay: BIAcore SPR; D5 IgG immobilized on CM5 chip, (biotin-CCIZN23)3 in solution
[3] = target: HIV-1 gp41 (strain BaL) (HIV-1 strain BaL); assay: cell-based or functional assay
[4] = target: HIV-1 gp41 (strain 89.6) (HIV-1 strain 89.6); assay: cell-based or functional assay
[5] = target: HIV-1 gp41 (strain MN-1) (HIV-1 strain MN-1) (UniProt P05877); assay: cell-based or functional assay
[6] = target: HIV-1 gp41 (strain HXB2) (HIV-1 strain HXB2) (UniProt P04578); assay: cell-based or functional assay
[7] = target: HIV-1 gp41 (strain NL4-3) (HIV-1 strain NL4-3); assay: cell-based or functional assay
Biotin-IZN36 = assay: BIAcore SPR; D5 IgG immobilized on CM5 chip, biotin-IZN36 in solution

| Substance | IC50 (read off the curve) (D5 IgG) [nM] | IC50, single-cycle HIV infectivity assay [3] [nM] | IC50, single-cycle HIV infectivity assay [4] [nM] | IC50, single-cycle HIV infectivity assay [6] [nM] | further results |
| --- | --- | --- | --- | --- | --- |
| IZN17 Q567R (peptide) | 10 |  |  |  |  |
| D5-scFv |  |  |  |  | Kd ((Biotin-CCIZN23)3 [1]): 0.2 nM |
| IZN17 L565M (peptide) | 10 |  |  |  |  |
| D5 IgG (antibody) |  | 93 | 1750 | 310 | Kd ((Biotin-CCIZN23)3 [2]): 0.22 nM; IC50, single-cycle HIV infectivity assay [5]: 393 nM; IC50, HIV single cycle infectivity assay, HIV-HXB2 [6]: 1350 nM; IC50, HIV-1 single-cycle infectivity assay, strain HXB2 (FIG. 17A) [6]: 144 µg/mL; IC50, single-cycle HIV infectivity assay [7]: 226 nM; Kd (Biotin-IZN36): 0.17 nM |
| T-20 (peptide) |  | 2.4 | 29 | 5.3 |  |

— patent US20070224212A1
